Data from article PMC3798605, “Independent Pathways Can Transduce the Life-Cycle Differentiation Signal in Trypanosoma brucei” (PLoS Pathogens, 2013).

Target: TbPTP1
Test: SPR
Settings: 2 mM citrate, 25°C, 10 mM HEPES, pH 7.4, 150 mM NaCl, 0.05% P20, 2 mM DTT, 20 mM MgCl2; for kon: parent: 0.0012; for koff: parent: 0.05; for Kd: parent: 42

Row | Substance | kon [M⁻¹ s⁻¹] | koff [s⁻¹] | Kd [µM]
1 | TbPIP39 wild type DD mutant | 1200 | 0.05 | 42
2 | TbPIP39 wild type D57A | 1300 | 0.04 | 31
3 | TbPIP39 wild type T63A; V64A | 1100 | 0.03 | 30
